Results reported in the supplement of paper PMC7877785.
± gives the uncertainty stated by the source.

Assay: self-splicing fitness, log relative to wild type (ln ratio); higher = more splicing; Tetrahymena group I intron in knt gene, E. coli kanamycin selection, DiMSum; sequences stand for … in CUCUCU…GGAGGGAAAAGUUAUCAGGCAUGCACCUGGUAGCUAGUCUUUAAACCAAUAGAUUGCAUCGGUUUAAAAGGCAAGACCGUCAAAUUGCGGGAAAGGGGUCAACAGCCGUUCAGUACCAAGUCUCAGGGGAAACUUUGAGAUGGCCUUGCAAAGGGUAUGGUAAUAAGCUGACGGACAUGGUCCUAACCACGCAGCCAAGUCCUAAGUCAACAGAUCUUCUGUUGAUAUGGAUGCAGUUCACAGACUAAAUGUCGGUCGGGGAAGAUGUAUUCUUCUCAUAAGAUAUAGUCGGACCUCUCCUUAAUGGGAGCUAGCGGAUGAAGUGAUGCAACACUGGAGCCGCUGGGAACUAAUUUGUAUGCGAAAGUAUAUUGAUUAGUUUUGGAGUACUCGUGGUCG
Procedure, shortened: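 A randomised library covering all eight P1ex-region intron nucleotides was built with the intron in the knt kanamycin-resistance gene on pET-22b(+) and held in E. coli BL21(DE3). Cells were grown overnight at 37°C or 30°C on LB agar, with or without 25 μg/mL kanamycin, plus 100 μg/mL carbenicillin, 50 μM IPTG and 0.2% rhamnose, and pooled colonies were amplicon-sequenced on an Illumina HiSeq 2500. DiMSum fitness is the error-weighted combination of wild-type-normalised replicate fold changes, kanamycin versus none.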

| Sequence | self-splicing fitness (ln) (30 °C) | self-splicing fitness (ln) (37 °C) |
| --- | --- | --- |
| GUGCAGCAAUAUUACGGGUG | -3.36 ± 0.12 | -1.87 ± 0.12 |
| GCGAAGCAAUAUUACGUGGC | -3.33 ± 0.39 | -2.35 ± 0.44 |
| CGUGAGCAAUAUUACGCGAA | -2.35 ± 0.14 | -3.33 ± 0.29 |
| AGUCAGCAAUAUUACGUAAG | -1.61 ± 0.1 | -0.51 ± 0.11 |
| CUUGAGCAAUAUUACGAUAU |  | -1.76 ± 0.39 |
| UUCCAGCAAUAUUACGAACG | -2.22 ± 0.16 | -0.164 ± 0.15 |
| CCAAAGCAAUAUUACGGAUU | -3.94 ± 0.25 | -3.55 ± 0.35 |
| GAAAAGCAAUAUUACGAUCU | -0.472 ± 0.075 | -0.478 ± 0.085 |
| CUAUAGCAAUAUUACGAAUU | -2.02 ± 0.39 | -2.26 ± 0.46 |
| AGAAAGCAAUAUUACGACUC | -1.53 ± 0.21 | -0.214 ± 0.2 |
| AUUCAGCAAUAUUACGGUCU | -0.633 ± 0.073 | 0.126 ± 0.093 |
| GACUAGCAAUAUUACGCCGG |  | -1.67 ± 0.36 |
| AGACAGCAAUAUUACGCCUC | -4.48 ± 0.36 | -2.08 ± 0.21 |
| UAUCAGCAAUAUUACGGUAU | -3.73 ± 0.21 | -2.01 ± 0.18 |
| CCGGAGCAAUAUUACGAAGC |  | -2.8 ± 0.36 |
| CUAGAGCAAUAUUACGGUCG | 0.342 ± 0.11 | -0.264 ± 0.13 |
| AGGGAGCAAUAUUACGCGUC | -3.15 ± 0.29 | -2.51 ± 0.37 |
| UAUUAGCAAUAUUACGUGUG | -0.846 ± 0.067 | -0.549 ± 0.084 |
| GGGGAGCAAUAUUACGAAGU | -2.04 ± 0.34 |  |
| AUAAAGCAAUAUUACGCUCC | -0.366 ± 0.16 | -0.365 ± 0.24 |
| CAUUAGCAAUAUUACGCCUG | -1.4 ± 0.12 | -0.136 ± 0.12 |
| CAUCAGCAAUAUUACGCAGU | -2.02 ± 0.089 | -1.78 ± 0.097 |
| UUAGAGCAAUAUUACGCACU | -1.24 ± 0.23 | -1.78 ± 0.44 |
| AGCCAGCAAUAUUACGUCCU | -0.436 ± 0.071 | 0.142 ± 0.078 |
| CGCGAGCAAUAUUACGACGA |  | -0.89 ± 0.35 |
| AGUAAGCAAUAUUACGCUUA | -3.07 ± 0.16 | -1.44 ± 0.15 |

| Sequence | self-splicing fitness (ln) (30 °C) | self-splicing fitness (ln) (37 °C) |
| --- | --- | --- |
| CCCCAGCAAUAUUACGAGCU | -3.85 ± 0.19 | -2.85 ± 0.2 |
| CAACAGCAAUAUUACGCUAA | -2.36 ± 0.098 | -2.11 ± 0.12 |
| UUAUAGCAAUAUUACGGCGU | -2.88 ± 0.34 | -1.7 ± 0.23 |
| AAUCAGCAAUAUUACGCCAU | -2.35 ± 0.19 | -1.76 ± 0.14 |
| ACACAGCAAUAUUACGCUGG | -1.21 ± 0.063 | -1.33 ± 0.091 |
| UGGUAGCAAUAUUACGCACA | -0.0584 ± 0.068 | 0.436 ± 0.074 |
| GUAAAGCAAUAUUACGAAGC | -1.89 ± 0.13 | -1.83 ± 0.22 |
| UACUAGCAAUAUUACGUGCG | -0.684 ± 0.08 | -1.31 ± 0.1 |
| AUGGAGCAAUAUUACGUUAC | -3.1 ± 0.25 |  |
| UUACAGCAAUAUUACGAAAU | -3.69 ± 0.34 | -2.59 ± 0.33 |
| CCCUAGCAAUAUUACGCCAU | -4.3 ± 0.42 | -2.43 ± 0.39 |
| ACACAGCAAUAUUACGGUAC | -4.03 ± 0.23 | -2.03 ± 0.14 |
| UACCAGCAAUAUUACGGUUG | -1.64 ± 0.067 | -0.791 ± 0.084 |
| CUCUAGCAAUAUUACGAGAC |  | -1.17 ± 0.26 |
| UCAGAGCAAUAUUACGUAGA | -0.896 ± 0.075 | 0.113 ± 0.12 |
| CCUAAGCAAUAUUACGUCCU | -3.74 ± 0.33 | -2.04 ± 0.24 |
| CCGCAGCAAUAUUACGGUAG | -2.16 ± 0.086 | -1.11 ± 0.093 |
| UGCAAGCAAUAUUACGUGCU | -2.02 ± 0.1 | -0.559 ± 0.094 |
| AAUAAGCAAUAUUACGUACU | 0.573 ± 0.1 | -0.654 ± 0.095 |
| UGAAAGCAAUAUUACGAUUC | -2.53 ± 0.18 | -2 ± 0.22 |
| CUGAAGCAAUAUUACGUUGG | -2.84 ± 0.13 | -1.58 ± 0.13 |
| AUUUAGCAAUAUUACGCCGC | -1.8 ± 0.41 | -1.82 ± 0.48 |
| AGAAAGCAAUAUUACGCUAC | -3.25 ± 0.39 |  |
| GAUAAGCAAUAUUACGUCAC |  | -1.86 ± 0.27 |
| GAUGAGCAAUAUUACGGGUG | -2.68 ± 0.2 | -3.32 ± 0.28 |
